The target of test [1] is MITF(wt) protein fragment 217–296 (Mus musculus). The test can be described thus: SEC. For orientation: In gel filtration, larger molecules generally elute earlier.
The target of test [2] is stammer-less MITF(Δ) protein fragment 217–296 (Mus musculus). Put plainly: SEC.

In the case of “MITF(wt) protein fragment 217–296 (domain or fragment)”, the stoichiometry N in test [1] was found to be 2.
In test [2], “stammer-less MITF(Δ) protein fragment 217–296 (domain or fragment)” registered a stoichiometry N of 2.

One may read the stoichiometry N as a count of units in the complex or per binding partner.

The record behind these values is paper PMC6954422.
